2 substances from patent US20160340421A1 can be followed below.

The target in test [1] is Human GDF8 homodimer (mature human Growth and Differentiation Factor-8) (human) (UniProt O14793). Description: SPR, antibody captured, buffer without BSA.
For test [2], the target named is hGDF11 homodimer (human) (UniProt O95390). Description: SPR, antibody captured, buffer without BSA. A general note: SPR reads the build-up and loss of mass on a sensor chip optically.
Test [3] has as its target Human GDF8 homodimer (mature human Growth and Differentiation Factor-8) (human) (UniProt O14793). Description: SPR, antibody captured, 25 nM antigen.
In test [4] the target is hGDF11 homodimer (human) (UniProt O95390). Description: SPR, antibody captured, 25 nM antigen.
In test [5] the target is Human GDF8 homodimer (mature human Growth and Differentiation Factor-8) (human) (UniProt O14793). Description: SPR Biacore T100, captured on anti-hFc, 25°C.
Test [6] concerns the target hGDF11 homodimer (human) (UniProt O95390). Description: SPR Biacore T100, captured on anti-hFc, 25°C.
Test [7] addresses Human GDF8 homodimer (mature human Growth and Differentiation Factor-8) (human) (UniProt O14793). Description: SPR Biacore T100, captured on anti-hFc, 37°C.
Test [8] addresses hGDF11 homodimer (human) (UniProt O95390). Description: SPR Biacore T100, captured on anti-hFc, 37°C.
Test [9] addresses Human GDF8 homodimer (mature human Growth and Differentiation Factor-8) (human) (UniProt O14793). Description: Luminex: hGDF8 beads with 1.25 µg/ml antibody, then Activin RIIB-mFc; MFI of bound Activin RIIB-mFc (n=3).
In test [10] the target is GDF8/TGFβ[48-72] chimera (T48): GDF8.1-47.TGFβ1.49-76.GDF8.73-109 (human GDF8 with human TGFβ-1 sequence). Put plainly: cell-based or functional assay.
Target sequence (chain, as listed by the source mutant limits assumed): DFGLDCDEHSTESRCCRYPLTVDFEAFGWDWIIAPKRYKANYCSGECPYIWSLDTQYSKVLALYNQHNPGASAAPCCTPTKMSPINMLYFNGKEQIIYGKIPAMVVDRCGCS
For test [11], the target named is Human GDF8 homodimer (mature human Growth and Differentiation Factor-8) (human) (UniProt O14793). Description: cell-based or functional assay.
The target in test [12] is hGDF11 homodimer (human) (UniProt O95390). Put plainly: cell-based or functional assay.

Sequence of hGDF11 homodimer (human) (O95390 299-407 limits assumed): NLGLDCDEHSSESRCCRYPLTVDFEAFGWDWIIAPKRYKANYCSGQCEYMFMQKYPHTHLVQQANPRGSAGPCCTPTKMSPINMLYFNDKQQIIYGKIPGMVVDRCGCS
Sequence of Human GDF8 homodimer (mature human Growth and Differentiation Factor-8) (human) (O14793 267-375): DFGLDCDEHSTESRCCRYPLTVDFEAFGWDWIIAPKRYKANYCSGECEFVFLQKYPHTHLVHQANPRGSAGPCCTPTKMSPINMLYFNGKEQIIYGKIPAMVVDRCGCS

On to “Control I: human anti-GDF8 antibody with the heavy and light chain variable regions of Myo29”, for which the Kd in test [1] was determined as 0.002 nM; with hGDF11 homodimer (human) [2] it was 0.001 nM; in test [3], 0.05 nM; in the test with hGDF11 homodimer (human) [4], 0.08 nM; in [5], 0.0103 nM; with hGDF11 homodimer (human) [6], 0.0146 nM. Besides, the Kd worked out at 0.0244 nM in [7] and 0.0274 nM with hGDF11 homodimer (human) [8]. Moreover, the T1/2 in test [1] was 21.7 h; with hGDF11 homodimer (human) [2], 1.75 h; in [3], 3.18 h; in the test with hGDF11 homodimer (human) [4] it was 2.27 h; in [5], 4.55 h; with hGDF11 homodimer (human) [6], 3.68 h. The T1/2 is 1.17 h in test [7] and 0.933 h in the test with hGDF11 homodimer (human) [8]. Besides, in [9], the MFI came to 58. In test [10], this substance registered an approximate IC50, luciferase bioassay with GDF8/TGFβ[48-72] conditioned medium of 0.402 nM. In test [11], this substance showed an IC50, GDF8-inducible luciferase, A204/Smad2 cells, 0.8 nM GDF8 of 0.62 nM. Moreover, in [11], the IC50, luciferase bioassay, 0.5 nM GDF8 came out at 0.172 nM. The same substance showed an IC50, luciferase bioassay, 1 nM GDF8 in [11] of 0.398 nM. The IC50, GDF11-inducible luciferase, A204/Smad2 cells, 0.8 nM GDF11 with hGDF11 homodimer (human) [12] amounted to 0.94 nM. Moreover, the IC50, luciferase bioassay, 0.4 nM GDF11 in the test with hGDF11 homodimer (human) [12] was 0.255 nM. The substance also had an IC50, luciferase bioassay, 0.8 nM GDF11 with hGDF11 homodimer (human) [12] of 0.459 nM.
Substance Negative Control (Table 11) came in with an MFI in test [9] of 4560.

As a reminder, the Kd is the constant that tells how readily two partners part at equilibrium. Read a high Kd as lower affinity.
